Assay results: patent US20150087812A1 (Janssen / Centocor, published 2015)
Where a chain is given by its changes, count along the chain named.

B1: mAb ATXB9 (antibody, V domains shown)
VH: QVQLVQSGAEVKKPGSSVKVSCKASGGTFSSYAISWVRQAPGQGLEWMGGISPYFGNANYAQKFQGRVTITADESTSTAYMELSSLRSEDTAVYYCARYGDFGGNVFTEFDYWGQGTLVTVSS
VL: EIVLTQSPGTLSLSPGERATLSCRASQSVNNSDLAWYQQKPGQAPRLLIYTASSRATGIPDRFSGSGSGTDFTLTISRLEPEDFAVYYCQQATTVPLTFGQGTKVEIK
notes: Human IgG1/kappa from Fab F89
B2: Fab F89 (VH H70, VL L82) (Fab, V domains shown)
VH: B1 VH
VL: B1 VL
notes: Soluble Fab-His; converted to mAb B9
B3: Fab F90 (VH H83, VL L83) (Fab, V domains shown)
VH: QVQLVQSGAEVKKPGSSVKVSCKASGGTFSSYAISWVRQAPGQGLEWMGGIIPIFGTANYAQKFQGRVTITADESTSTAYMELSSLRSEDTAVYYCARGEANEVYPGLDYWGQGTLVTVSS
VL: B1 VL with N30S, N31K, D33A, T51N, A92S, T93N, T94K, V95D
notes: Soluble Fab-His
B4: Fab F85 (VH H58, VL L79) (Fab, V domains shown)
VH: QVQLVQSGAEVKKPGSSVKVSCKASGGTFSSYAISWVRQAPGQGLEWMGGIIPIFGTANYAQKFQGRVTITADESTSTAYMELSSLRSEDTAVYYCARDLYGIDIYYALDYWGQGTLVTVSS
VL: B1 VL with N30S, N31S, D33Y, T51G, A92S, T93N, V95L
notes: Soluble Fab-His
B5: Fab F72 (VH H65, VL PH9L1) (Fab, V domains shown)
VH: B3 VH with E100D, E103S, V104I, G107L, L108F
VL: not shown
notes: Soluble Fab-His
B6: mAb ATXB3 (antibody, V domains shown)
VH: EVQLVQSGAEVKKPGESLKISCKGSGYSFTSYWIGWVRQMPGKGLEWMGIIYPGDSDTRYSPSFQGQVTISADKSISTAYLQWSSLKASDTAMYYCARPYGTFDYWGQGTLVTVSS
VL: EIVLTQSPATLSLSPGERATLSCRASQSVADSLAWYQQKPGQAPRLLIYKASNRATGIPARFSGSGSGTDFTLTISSLEPEDFAVYYCQQSNGWPRTFGQGTKVEIK
notes: Human IgG1/kappa from Fab F17
B7: Fab F40 (VH H32, VL L42) (Fab, V domains shown)
VH: EVQLVQSGGGLVQPGGSLRLSCAASGFTFSSYAMSWVRQAPGKGLEWVSVINSDGSSIYYADSVKGRFTISRDNSKNTLYLQMNSLRAEDTAVYYCAKLEAIDYAWGFDYWGQGTLVTVSS
VL: B6 VL with K50N, N92F, G93H, R96L
notes: Soluble Fab-His; converted to mAb B16; the Fab's H32 may differ in FR1
B8: mAb ATXB6 (antibody, V domains shown)
VH: QVQLVQSGAEVKKPGSSVKVSCKASGGTFSSYAISWVRQAPGQGLEWMGGIIPIFGTANYAQKFQGRVTITADESTSTAYMELSSLRSEDTAVYYCARDLYIYGDLDYWGQGTLVTVSS
VL: DIQMTQSPSSLSASVGDRVTITCRASQSIGGWLNWYQQKPGKAPKLLIYTASSLQSGVPSRFSGSGSGTDFTLTISSLQPEDFATYYCQQSYTYPITFGQGTKVEIK
notes: Human IgG1/kappa from Fab F73
B9: Fab F117 (VH H110, VL L103) (Fab, V domains shown)
VH: B3 VH with G99A, E100D, E103Q, V104L, Y105S, P106G, G107Y
VL: B8 VL with G31R, W32S, T50A, S91P, Y92F, T93D, I96F
notes: Soluble Fab-His
B10: Fab F116 (VH H108, VL L100) (Fab, V domains shown)
VH: B3 VH with G99S, E100D, A101L, E103N, Y105S, P106T, G107V
VL: B8 VL with G31K, W32V, T50G, S91P, Y92I, T93S, Y94T, I96L
notes: Soluble Fab-His
B11: Fab F67 (VH H60, VL L61) (Fab, V domains shown)
VH: QVQLVQSGAEVKKPGSSVKVSCKASGGTFSSYAISWVRQAPGQGLEWMGGIIPIFGTANYAQKFQGRVTITADESTSTAYMELSSLRSEDTAVYYCARIARYARGYMHTFDYWGQGTLVTVSS
VL: B8 VL with G30S, G31S, W32Y, T50A, S91H, Y92L, T93S, Y94I
notes: Soluble Fab-His; converted to mAb B10
B12: mAb ATXB18 (antibody, V domains shown)
VH: B8 VH with L100A, Y101S, I102T
VL: B8 VL with G30D, T50A, T93S, Y94T, I96L
notes: Human IgG1/kappa from Fab F97
B13: mAb ATXB7 (antibody, V domains shown)
VH: B3 VH with G99P, E100I, A101G, N102T, E103G, V104Y, P106G, G107F, L108F
VL: B8 VL with G30A, G31K, T50F, T93S, Y94T, I96L
B14: mAb ATXB14 (antibody, V domains shown)
VH: B8 VH with T57N, A58T, L100I, Y101S, I102G
VL: B8 VL with G30D, T50A, T93S, Y94T, I96L
notes: Human IgG1/kappa from Fab F104
B15: mAb ATXB13 (antibody, V domains shown)
VH: B8 VH with L100F, Y101S, I102V, L106F
VL: B8 VL with G30A, G31K, T50A, T93S, Y94T, I96L
notes: Human IgG1/kappa from Fab F143
B16: mAb ATXB8 (antibody, V domains shown)
VH: B8 VH with L100S, Y101S, I102A, L106F
VL: B8 VL with G30D, T50A, T93S, Y94T, I96L
notes: Human IgG1/kappa from Fab F96

Assays:
[1] = biological target: T1, recombinant human ATX beta isoform with N-terminal purification tag (human, UniProt Q13822 49-863); test: cell-based or functional assay
[2] = biological target: recombinant mouse ATX beta isoform (R&D Systems, Cat No. 6187-EN-010) (mouse, UniProt Q9R1E6 36-862); test: cell-based or functional assay
[3] = biological target: T1, recombinant human ATX beta isoform with …; test: SPR Biacore 3000, His-ATX beta captured on anti-Penta-His, mAb as analyte, bivalent analyte model
Description: (§1) Affinity measurements using surface plasmon resonance (SPR) were performed using a Biacore 3000 optical biosensor (Biacore) for ATXB3, ATXB6, ATXB8, ATXB9, ATXB13, and ATXB14. A biosensor surface was prepared by coupling anti-Penta-His antibody (Qiagen, Cat No. 34660) to the carboxymethylated dextran surface of a CM-5 chip (Biacore, Cat No. BR-1000-14) using the manufacturer instructions for amine-coupling chemistry. Approximately 15,000 RU (response units) of anti-Penta-His antibody were immobilized in each of four flow cells. The kinetic experiments were performed at 25° C. in running buffer (PBS+0.01% P20+100 ug/ml BSA). Serial dilutions of anti-ATX mAbs (ATXB3, B6, B8, B9, B13, B14) from 900 nM to 0.412 nM were prepared in running buffer. About 80 RU of human ATX beta-His tagged proteins were captured on flow cell 2 of the sensor chip. Flow cell 1 was used as reference surface. Capture of ATX was followed by five minutes injection (association phase) of anti-ATX mAbs at 50 uL/min, followed by 15 minutes of buffer flow (dissociation phase). The chip surface was regenerated by 15 seconds injection of 100 mM H₃PO₄ (Sigma, Cat No. 7961) at 50 uL/min. The collected data were processed using BIAevaluation software, version 3.2 (Biacore). First, double reference subtraction of the data was performed by subtracting the curves generated by buffer injection from the reference-subtracted curves for analyte injections. Then kinetic analysis of the data was performed using the Bivalent Analyte binding model with global fitting. Kd1 (Kₒₙ) was calculated as intrinsic KD with minimum avidity. The result for each mAb was reported in the format of Ka1 (On-rate, Kₒₙ), Kd1 (Off-rate, Koff) and KD1 (Equilibrium dissociation constant). Affinity measurements for ATXB18 were performed on a Proteon XPR36 system (Bio-Rad), using a protocol similar to the one used on the Biacore platform.
The five mAbs with the lowest IC50 values in the inhibition assays as well as ATXB3, a non-neutralizing antibody, were tested for their affinity to the human ATX-beta isoform, as measured by surface plasmon resonance. Due to nonspecific binding of the ATX antigen to the chip surface, these experiments had to be conducted in the reverse format, with ATX immobilized on the chip surface (ligand) and our antibodies in solution (analyte).

[4] = biological target: T1, recombinant human ATX beta isoform with …; test: Fab-His ELISA
Description: (§2) Fabs were captured on black MaxiSorp plates (Nunc, Cat. No. 437111) coated with 1 μg/ml sheep anti-human Fd (CH1) antibody (The Binding Site, Cat. No. PC075). Plates were washed and biotinylated human ATX was added to the captured Fabs at 5 nM. Incubation was carried out for 1 hour at room temperature with gentle shaking. Plates were washed, SA-HRP (Invitrogen, Cat. No. 43-4323) was added and chemiluminescent detection carried out.
(§3) Clones with binding above background were sequenced and unique clones identified. […] These clones were identified with binding signal to human ATX at least 6-fold above the background. Table 3 lists the identifier for VH and VL (Peptide ID) and the combination of both (Fab ID) sorted by the Fab ELISA binding data.

[5] = biological target: T1, recombinant human ATX beta isoform with …; test: ELISA, Fab-His captured by anti-Fd, 5 nM biotinylated human ATX beta
Description: as §2, §3

[6] = biological target: T1, recombinant human ATX beta isoform with …; test: SPR ProteOn XPR36, protocol similar to the Biacore one, bivalent analyte model
Description: as §1, with “Affinity measurements for ATXB18 were performed on a Proteon XPR36 system (Bio-Rad), using a protocol similar to the one used on the Biacore platform.” left out
The five mAbs with the lowest IC50 values in the inhibition assays as well as ATXB3, a non-neutralizing antibody, were tested for their affinity to the human ATX-beta isoform, as measured by surface plasmon resonance. […]

Binder | IC50, inhibition of LPC hydrolysis by human ATX beta (1.5 nM), coupled choline oxidation (Amplex Red) assay [1] [nM] | IC50, inhibition of LPC hydrolysis by mouse ATX, coupled choline oxidation (Amplex Red) assay [2] [nM] | Kd [3] [nM] | koff [3] [s⁻¹] | kon [3] [M⁻¹ s⁻¹] | fold above background [4] [fold] | Fab Binding [5] | also measured
B1 | 14.5 | 9.3 | 47.8 | 0.000322 | 3370 |  |  | 
B2 |  |  |  |  |  | ≥ 6 | 5.7e+06 relative chemiluminescence units | 
B3 |  |  |  |  |  | ≥ 6 | 1.7e+06 relative chemiluminescence units | 
B4 |  |  |  |  |  | ≥ 6 | 1.7e+06 relative chemiluminescence units | 
B5 |  |  |  |  |  | ≥ 6 | 1.6e+06 relative chemiluminescence units | 
B6 |  |  | 0.715 | 0.000303 | 212000 |  |  | 
B7 |  |  |  |  |  | ≥ 6 | 8.1e+06 relative chemiluminescence units | 
B8 | 1 | 0.3 | 0.329 | 0.000292 | 444000 |  |  | 
B9 |  |  |  |  |  | ≥ 6 | 1.8e+06 relative chemiluminescence units | 
B10 |  |  |  |  |  | ≥ 6 | 1.9e+06 relative chemiluminescence units | 
B11 |  |  |  |  |  | ≥ 6 | 8.8e+06 relative chemiluminescence units | 
B12 |  |  |  |  |  |  |  | Kd [6]: 0.673 nM; koff [6]: 0.000614 s⁻¹; kon [6]: 949000 M⁻¹ s⁻¹
B13 | 158 | 217 |  |  |  |  |  | 
B14 | 0.8 | 1.5 | 0.369 | 0.000583 | 789000 |  |  | 
B15 | 1 | 0.5 | 0.6 | 0.000329 | 274000 |  |  | 
B16 | 0.7 | 0.8 | 1.77 | 0.000883 | 249000 |  |  | 
